The labels stand for the following.
B1: FtsZ-WT (natural protein, E. coli, UniProt P0A9A6 1-383, looked up)
chain: MFEPMELTNDAVIKVIGVGGGGGNAVEHMVRERIEGVEFFAVNTDAQALRKTAVGQTIQIGSGITKGLGAGANPEVGRNAADEDRDALRAALEGADMVFIAAGMGGGTGTGAAPVVAEVAKDLGILTVAVVTKPFNFEGKKRMAFAEQGITELSKHVDSLITIPNDKLLKVLGRGISLLDAFGAANDVLKGAVQGIAELITRPGLMNVDFADVRTVMSEMGYAMMGSGVASGEDRAEEAAEMAISSPLLEDIDLSGARGVLVNITAGFDLRLDEFETVGNTIRAFASDNATVVIGTSLDPDMNDELRVTVVATGIGMDKRPEITLVTNKQVQQPVMDRYQQHGMAPLTQEQKPVAKVVNDNAPQTAKEPDYLDIPAFLRKQAD
B2: His-ZipA^185–328 (domain or fragment)
chain: not shown

Series [1] concerns the molecule itself. Kind of series: sedimentation of polymers + electron microscopy.
In series [2] the target is B1. Kind of series: BLI.
The target of series [3] is B1. Kind of series: BLI. This is another data set of the same source.
The next series concerns the target T1, FtsZ-L178E (E. coli, UniProt P0A9A6 1-383, L178E).
T1 sequence (looked up): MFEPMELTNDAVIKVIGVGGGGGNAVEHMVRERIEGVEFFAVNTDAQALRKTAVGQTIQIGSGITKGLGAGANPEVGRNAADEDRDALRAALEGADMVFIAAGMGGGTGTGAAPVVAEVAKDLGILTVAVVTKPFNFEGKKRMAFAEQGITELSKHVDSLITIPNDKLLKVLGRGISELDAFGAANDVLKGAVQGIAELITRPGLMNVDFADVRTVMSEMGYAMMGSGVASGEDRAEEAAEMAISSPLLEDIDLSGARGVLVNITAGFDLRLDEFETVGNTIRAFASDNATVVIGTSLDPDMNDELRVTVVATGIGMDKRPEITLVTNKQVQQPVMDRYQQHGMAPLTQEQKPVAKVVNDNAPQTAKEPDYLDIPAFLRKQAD
As to the kind of experiment: BLI.

In series [4] the target is B1. As to the kind of experiment: BLI. This is another data set of the same source.
Series [5] concerns the target B2. As to the kind of experiment: BLI.
For series [6], the target named is B2. As to the kind of experiment: BLI. The source holds these as a separate data set.
The target in series [7] is B2. As to the kind of experiment: BLI. This is another data set of the same source.
A further series concerns the target T2, His-FtsZ (E. coli, UniProt P0A9A6 1-383).
T2 sequence (looked up): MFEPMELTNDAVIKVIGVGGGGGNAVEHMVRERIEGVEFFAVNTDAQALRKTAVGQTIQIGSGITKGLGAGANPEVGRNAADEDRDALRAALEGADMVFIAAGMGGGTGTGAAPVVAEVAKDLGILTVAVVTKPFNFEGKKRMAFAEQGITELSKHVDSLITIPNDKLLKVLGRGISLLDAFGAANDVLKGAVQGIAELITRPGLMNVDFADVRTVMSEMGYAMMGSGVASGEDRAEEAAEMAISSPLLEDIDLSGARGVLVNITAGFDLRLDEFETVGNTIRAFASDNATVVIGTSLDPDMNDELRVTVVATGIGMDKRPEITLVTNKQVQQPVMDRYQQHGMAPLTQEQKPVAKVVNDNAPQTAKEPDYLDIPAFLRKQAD
Kind of series: BLI.

Where two headings read alike, the source gives them in different places.

On to B1, for which the binding result in [1] is “binds”.

For B2, the dissociation constant Kd with FtsZ-WT [2] was 0.77 ± 0.1 µM; in the series with FtsZ-WT [3], 0.42 ± 0.1 µM; in the series with FtsZ-L178E, 5.3 ± 0.7 µM.

B3: His-SlmA/SBS (natural protein, E. coli, UniProt P0C093 1-198, looked up)
chain: MAEKQTAKRNRREEILQSLALMLESSDGSQRITTAKLAASVGVSEAALYRHFPSKTRMFDSLIEFIEDSLITRINLILKDEKDTTARLRLIVLLLLGFGERNPGLTRILTGHALMFEQDRLQGRINQLFERIEAQLRQVLREKRMREGEGYTTDETLLASQILAFCEGMLSRFVRSEFKYRPTDDFDARWPLIAAQLQ
As to B3, in the series with FtsZ-WT [4], the binding result is recorded as “binds”.

B4: MinDΔ10-linker-CCTP (other, E. coli, UniProt P0AEZ3 1-260, looked up)
chain: MARIIVVTSGKGGVGKTTSSAAIATGLAQKGKKTVVIDFDIGLRNLDLIMGCERRVVYDFVNVIQGDATLNQALIKDKRTENLYILPASQTRDKDALTREGVAKVLDDLKAMDFEFIVCDSPAGIETGALMALYFADEAIITTNPEVSSVRDSDRILGILASKSRRAENGEEPIKEHLLLTRYNPGRVSRGDMLSMEDVLEILRIKLVGVIPEDQSVLRASNQGEPVILDINADAGKAYADTVERLLGEERPFRFIEEEKPEITLVTNKQVQQPVMDRYQQHGMAPLTQEQKPVAKVVNDNAPQTAKEPDYLDIPAFLRKQAD
For the molecule B4, the Kd in the series with His-ZipA^185–328 [5] is 1.4 ± 0.2 µM; with His-ZipA^185–328 [6] it was 11.7 ± 5.2 µM.

B5: FtsZ-360 (domain or fragment, E. coli, UniProt P0A9A6 1-360, looked up)
chain: MFEPMELTNDAVIKVIGVGGGGGNAVEHMVRERIEGVEFFAVNTDAQALRKTAVGQTIQIGSGITKGLGAGANPEVGRNAADEDRDALRAALEGADMVFIAAGMGGGTGTGAAPVVAEVAKDLGILTVAVVTKPFNFEGKKRMAFAEQGITELSKHVDSLITIPNDKLLKVLGRGISLLDAFGAANDVLKGAVQGIAELITRPGLMNVDFADVRTVMSEMGYAMMGSGVASGEDRAEEAAEMAISSPLLEDIDLSGARGVLVNITAGFDLRLDEFETVGNTIRAFASDNATVVIGTSLDPDMNDELRVTVVATGIGMDKRPEITLVTNKQVQQPVMDRYQQHGMAPLTQEQKPVAKVVND
As to B5, in series [1], the binding result is reported as “binds”.

B6: MalE-CCTP (domain or fragment, E. coli, UniProt P0A9A6 367-383, looked up)
chain: KEPDYLDIPAFLRKQAD
In turn, B6 gave a Kd with His-ZipA^185–328 [7] of 30.8 ± 4.7 µM.

B7: ZipA^185–328 (untagged) (domain or fragment)
chain: not shown
In the case of B7, the affinity with His-FtsZ, expressed as Kd, was 8.1 ± 1.3 µM.

B8: CCTP (14 amino acids) (peptide, UniProt P0A9A6 370-383, looked up)
peptide: DYLDIPAFLRKQAD
For B8, the Kd with His-ZipA^185–328 [7] is 140 ± 22 µM.

The values above are taken from PMC4364296 (Molecular microbiology, 2014).
